According to the supplement of paper PMC9876800:

Test system: peptide library, one residue held at a place counted from the S/T acceptor
Experiment: relative phosphorylation of the sub-library (ratio to the mean residue at this position); higher = residue favoured
Details: human
Procedure, shortened: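 Relative sub-library phosphorylation is the ratio of each sub-library's signal to the mean residue at that position. The signal came from phosphorimaging of spots on streptavidin membranes, quantified by densitometry, after purified recombinant kinases reacted with biotinylated degenerate peptide sub-libraries in 384-well plates. Reactions held 50 μM peptide and 50 μM ATP spiked with γ-32P-ATP for 90 min under kinase-specific conditions.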

Sequence of MYLK3, construct: aa490-end (Q32MK0 490-819, looked up): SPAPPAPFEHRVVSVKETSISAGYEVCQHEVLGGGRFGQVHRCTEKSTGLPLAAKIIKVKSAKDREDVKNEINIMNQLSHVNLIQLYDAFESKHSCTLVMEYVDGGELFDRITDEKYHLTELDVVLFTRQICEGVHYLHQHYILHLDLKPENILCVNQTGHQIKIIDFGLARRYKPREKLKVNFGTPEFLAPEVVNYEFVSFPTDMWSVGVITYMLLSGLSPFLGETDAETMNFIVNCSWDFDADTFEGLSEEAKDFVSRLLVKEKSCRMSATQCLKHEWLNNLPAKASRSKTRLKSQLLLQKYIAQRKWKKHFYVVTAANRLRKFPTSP
Sequence of PNCK, construct: Full length (Q6P2M8 whole entry, looked up): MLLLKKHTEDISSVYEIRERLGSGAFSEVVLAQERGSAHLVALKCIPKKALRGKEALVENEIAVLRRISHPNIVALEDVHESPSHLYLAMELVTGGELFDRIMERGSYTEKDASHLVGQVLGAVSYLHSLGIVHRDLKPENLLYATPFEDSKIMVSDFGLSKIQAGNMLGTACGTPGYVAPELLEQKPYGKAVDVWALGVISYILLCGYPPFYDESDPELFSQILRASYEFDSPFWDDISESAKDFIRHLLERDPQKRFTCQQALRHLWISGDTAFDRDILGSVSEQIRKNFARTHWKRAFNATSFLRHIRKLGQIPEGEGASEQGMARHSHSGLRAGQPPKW

MYLK3, construct: aa490-end (from UniProt Q32MK0)
relative phosphorylation
Details	at +1	at +2	at +3	at +4	at -1	at -2	at -3	at -4	at -5
A fixed	0.997	0.992	0.828	1	0.944	0.927	0.967	1.04	0.985
D fixed	0.753	0.819	0.786	0.983	0.851	0.585	0.67	0.758	0.72
E fixed	0.833	0.958	0.758	1.01	0.799	0.585	0.667	0.836	0.722
F fixed	0.951	1.06	1.43	1.02	0.964	0.641	0.71	0.904	0.919
G fixed	0.937	0.89	0.861	1.04	0.913	0.788	0.879	1.01	0.982
H fixed	0.922	0.995	0.943	1.07	1.03	1.09	0.884	0.976	0.987
I fixed	1.1	1.19	0.997	1.03	0.971	0.656	0.748	0.936	1.09
K fixed	1.25	0.972	0.81	0.941	1.09	1.44	1.41	1.42	1.29
L fixed	0.938	1	1.2	1.04	1.24	0.653	0.711	0.918	0.983
M fixed	1.18	1.02	0.953	0.932	1.2	0.711	0.756	0.991	1.04
N fixed	0.961	0.863	0.839	0.93	1.07	0.737	0.717	0.867	0.813
P fixed	0.786	0.899	0.876	1.18	0.956	0.778	0.933	1.01	1.11
Q fixed	1.1	0.887	0.786	0.937	0.949	0.762	0.77	0.902	0.85
R fixed	1.43	1.07	0.821	1	1.17	4.7	3.93	1.62	1.68
V fixed	1.12	1.19	0.889	0.943	0.972	0.668	0.773	1.01	1.01
W fixed	0.839	0.997	2.22	1.05	0.862	0.63	0.735	0.858	0.813
Y fixed	0.908	1.19	1	0.902	1.02	0.647	0.729	0.938	1
pThr fixed	1.12	1.06	0.774	1.08	0.769	0.637	0.724	0.809	0.728
pTyr fixed	0.83	1.06	0.883	1.02	0.882	0.644	0.994	0.844	0.798

PNCK, construct: Full length (from UniProt Q6P2M8)
relative phosphorylation
Details	at +1	at +2	at +3	at +4	at -1	at -2	at -3	at -4	at -5
A fixed	0.986	1.09	1	0.953	0.983	1.03	0.881	0.95	0.856
D fixed	0.844	1.03	1.2	1.01	1.07	0.666	0.626	0.713	0.718
E fixed	0.919	1.03	1.07	0.985	0.92	0.678	0.644	0.803	0.726
F fixed	1.37	0.986	1	1.07	0.904	0.687	0.659	0.921	1.12
G fixed	0.879	0.871	1.01	1.01	1.01	0.814	0.678	0.863	0.833
H fixed	0.96	1.28	1.02	0.93	1.06	0.826	0.799	0.921	0.839
I fixed	0.869	1.01	0.851	1.13	0.785	0.795	0.741	1.06	1.12
K fixed	1.13	0.889	0.962	0.927	1.32	1.88	1.84	1.7	1.13
L fixed	0.866	0.98	0.913	1.2	0.826	0.764	0.694	1.1	1.56
M fixed	0.938	0.893	0.876	0.982	0.869	0.855	0.668	0.986	1.07
N fixed	1.06	0.966	1.26	0.96	1.41	0.934	0.732	0.892	0.822
P fixed	0.777	0.914	0.92	1.07	1.07	0.641	0.649	0.787	0.994
Q fixed	1.19	0.947	0.976	1	0.983	1.46	0.826	1.01	0.958
R fixed	1.39	1.02	0.958	0.875	1.32	2.64	4.54	1.49	1.44
V fixed	0.873	1.02	0.885	0.991	0.795	0.8	0.679	1.05	0.956
W fixed	0.909	0.916	1.02	0.989	0.81	0.829	0.7	0.835	0.873
Y fixed	1.02	1.14	1.08	0.91	0.86	0.706	0.644	0.91	0.973
pThr fixed	1.16	1.29	1.1	1.13	0.832	0.701	0.723	0.902	0.774
pTyr fixed	1.12	2.97	1.42	1.04	1.02	0.701	0.684	0.799	0.897
